In patent US20170152308A1 (Biogen, published 2017):
Read-outs that look alike come from different tables or passages of the source.

What was measured:
[1] = biological target: T1, His-huTDP-43 domain II (amino acid residues 99-204) (human); experiment: direct ELISA, coated antigen
T1 construct: Amino terminal His-tagged fragment, E. coli
T1 chain: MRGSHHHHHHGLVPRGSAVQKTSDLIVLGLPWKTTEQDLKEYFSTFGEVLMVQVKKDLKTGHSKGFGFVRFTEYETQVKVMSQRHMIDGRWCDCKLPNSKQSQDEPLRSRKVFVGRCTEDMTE

[2] = biological target: T2, recombinant full-length His-tagged human TDP-43 (2-414) (human, UniProt Q13148 2-414); experiment: direct ELISA, coated antigen
T2 construct: Amino terminal His tag, made in E. coli, purified in 8 M urea; also called full length TDP-43; full-length TDP-43
Experimental: (§1) The half maximal effective concentration (EC₅₀) of the human-derived TDP-43-specific antibodies for human TDP-43 and their target target-specificity was determined substantially as described in Example 2 above. Briefly, 96 well microplates (Corning) were coated with recombinant full length TDP-43 (Biogen Idec, USA), Escherichia coli extract and BSA (Sigma, Buchs, Switzerland), diluted to a concentration of 5 μg/ml in carbonate ELISA coating buffer (pH 9.6) overnight at 4° C. […] Non-specific binding sites were blocked for 1 hr. at room temperature with PBS containing 2% BSA (Sigma, Buchs, Switzerland). Human TDP-43-specific antibodies were diluted to the indicated concentrations and incubated 1 hr. at room temperature. Binding was determined using a donkey anti-human IgGγ-specific secondary antibody conjugated with HRP (Jackson ImmunoResearch, USA), followed by measurement of HRP activity in a standard colorimetric assay. EC₅₀ values were estimated by a non-linear regression using GraphPad Prism software (San Diego, USA).

[3] = biological target: T3, 6xHis-SUMO-TDP-43 (1-414), properly folded full length (human, UniProt Q13148 1-414); experiment: capture ELISA, antigen held by anti-6xHis antibody
T3 construct: Purified with KSCN and arginine, monomeric; captured on the plate by an anti-6xHis antibody; also called folded full-length TDP-43; 6xHis/SUMO tagged full length TDP-43; not shown: N-terminal 6xHis and SUMO tags from a modified pET19-b vector
T3 sequence (Q13148 whole entry): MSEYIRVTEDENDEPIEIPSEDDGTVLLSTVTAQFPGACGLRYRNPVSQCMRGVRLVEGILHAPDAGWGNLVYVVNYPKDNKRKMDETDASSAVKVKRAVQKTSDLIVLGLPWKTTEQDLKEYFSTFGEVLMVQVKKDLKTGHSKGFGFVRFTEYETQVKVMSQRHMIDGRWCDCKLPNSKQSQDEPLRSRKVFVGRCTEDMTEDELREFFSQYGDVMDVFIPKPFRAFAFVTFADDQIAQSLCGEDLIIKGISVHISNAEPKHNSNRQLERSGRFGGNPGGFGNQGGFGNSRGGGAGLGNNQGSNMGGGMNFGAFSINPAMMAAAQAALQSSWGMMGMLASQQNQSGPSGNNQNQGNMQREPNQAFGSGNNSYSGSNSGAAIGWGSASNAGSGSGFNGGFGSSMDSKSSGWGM
Experimental: (§2) Non-specific binding sites were blocked for 1 hr at RT with PBS containing 1% BSA (Sigma) and 0.05% Tween-20 (Fisher Scientific). 6×His-SUMO-TDP43 proteins at a concentration of 1.7 μM were allowed to bind to antibody-coated plates for 1 hr at RT in PBS buffer containing 1% BSA, 300 mM arginine and 0.1% PEG 5000, pH 7.5. Plates were incubated for 1 hr at RT with human antibodies of present invention, titrated in a three-fold dilution series, followed by HRP conjugated anti-human IgG Fc γ (Jackson ImmunoResearch) in PBST containing 1% BSA. HRP activity was measured in a standard colorimetric assay. EC₅₀ values were calculated using a four-parameter logistic curve fit on Softmax pro software (Molecular Devices).
(§3) We measured the binding affinity of the human-derived TDP-43 specific antibodies provided herein to properly folded 6×His/SUMO tagged TDP-43 using a capture ELISA in which native TDP-43 was immobilized without direct adsorption on the surface of the ELISA plate. This was achieved by immobilizing an anti 6×His antibody which then captured native TDP-43. […] After this immobilization step, binding by human antibodies was tested in regular buffers without interference of TDP-43 aggregation.

[4] = biological target: T4, 6xHis-SUMO-TDP-43 (220-414) (human, UniProt Q13148 220-414); experiment: capture ELISA, antigen held by anti-6xHis antibody
T4 construct: Captured on the plate by an anti-6xHis antibody; also called 6xHis/SUMO tagged truncated TDP-43; not shown: N-terminal 6xHis and SUMO tags from a modified pET19-b vector
T4 sequence (Q13148 220-414): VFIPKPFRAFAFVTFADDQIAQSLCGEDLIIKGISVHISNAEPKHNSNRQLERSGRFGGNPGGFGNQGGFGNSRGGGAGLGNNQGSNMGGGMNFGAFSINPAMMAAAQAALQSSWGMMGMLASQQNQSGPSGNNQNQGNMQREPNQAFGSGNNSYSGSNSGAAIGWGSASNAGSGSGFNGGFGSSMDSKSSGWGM
Experimental: as §2, §3

[5] = biological target: T5, His-huTDP-43 domain I (amino acid residues 2-106) (human); experiment: direct ELISA, TDP-43 fragments coated at 6.6 ug/ml, OD 450
T5 construct: Amino terminal His-tagged fragment, E. coli; also called N-terminal domain
T5 chain: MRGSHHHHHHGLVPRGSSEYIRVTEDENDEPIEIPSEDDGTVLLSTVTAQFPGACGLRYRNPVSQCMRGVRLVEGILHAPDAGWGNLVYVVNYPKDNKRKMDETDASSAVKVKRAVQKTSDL
Experimental: (§4) Non-specific binding sites were blocked for 1 hr. at room temperature with PBST containing 2% BSA (Sigma, Buchs, Switzerland). Antibodies were incubated 1 hr. at room temperature. Binding was determined using either a donkey anti-human IgGγ-specific antibody conjugated with HRP (Jackson ImmunoResearch, USA) or a goat-anti mouse IgG (H+L)-specific secondary antibody conjugated with HRP (Jackson ImmunoResearch, USA)., followed by measurement of HRP activity in a standard colorimetric assay.

[6] = biological target: T6, His-huTDP-43 domain III (amino acid residues 183-273) (human); experiment: Western blot, 300 ng recombinant protein per lane, primary antibody 10 nM
T6 construct: Amino terminal His-tagged fragment, E. coli
T6 chain: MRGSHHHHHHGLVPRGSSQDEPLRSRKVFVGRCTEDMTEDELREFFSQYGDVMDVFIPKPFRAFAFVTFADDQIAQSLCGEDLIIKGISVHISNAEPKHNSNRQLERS
Experimental: (§5) Non-specific binding sites were blocked for 1 hr. at room temperature with PBST containing 2% BSA (Sigma, Buchs, Switzerland). Blots were incubated overnight with primary antibodies (10 nM) followed by either a donkey anti-human IgGγ-specific secondary antibody conjugated with HRP (Jackson ImmunoResearch, USA) or a goat-anti mouse IgG (H+L)-specific secondary antibody conjugated with HRP (Jackson ImmunoResearch, USA). Blots were developed using ECL and ImageQuant 350 detection (GE Healthcare, Otelfingen, Switzerland).

[7] = biological target: T7, His-huTDP-43 domain IV (amino acid residues 258-414) (human, UniProt Q13148 258-414); experiment: as above
T7 construct: Amino terminal His-tagged fragment, E. coli, solubilized in 8 M urea; also called Glycine-rich domain
T7 sequence (Q13148 other isoform, or with tags, fused parts or gaps limits assumed): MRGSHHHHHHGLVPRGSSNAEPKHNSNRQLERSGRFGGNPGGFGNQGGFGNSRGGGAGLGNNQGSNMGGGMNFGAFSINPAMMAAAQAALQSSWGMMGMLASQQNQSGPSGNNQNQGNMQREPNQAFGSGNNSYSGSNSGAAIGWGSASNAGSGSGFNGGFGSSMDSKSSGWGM
Experimental: as §5

[8] = biological target: T6, His-huTDP-43 domain III (amino acid …); experiment: direct ELISA, TDP-43 fragments coated at 6.6 ug/ml, OD 450
Experimental: as §4

[9] = biological target: T7, His-huTDP-43 domain IV (amino acid …); experiment: as above
Experimental: as §4

[10] = biological target: T6, His-huTDP-43 domain III (amino acid …); experiment: direct ELISA, coated antigen
[11] = biological target: T1, His-huTDP-43 domain II (amino acid …); experiment: direct ELISA, coated antigen; direct ELISA, domain coated at 6.6 ug/ml (Example 7, FIG. 5H)
Experimental: as §4
Binding of the human-derived antibodies was determined by direct ELISA.

[12] = biological target: T5, His-huTDP-43 domain I (amino acid …); experiment: Western blot
Experimental: as §5
(§6) Commercially available TDP-43 specific antibody TARDBP (M01), clone 2E2-D3 (Abnova, Taiwan) was used as positive control for human TDP-43 detection whereas, an anti-human IgG Fcγ-specific antibody was used as a negative control. Binding of the human-derived antibodies to specific TDP-43 domains was determined by Western Blot analysis.

[13] = biological target: T1, His-huTDP-43 domain II (amino acid …); experiment: Western blot
Experimental: as §5, §6

[14] = biological target: T6, His-huTDP-43 domain III (amino acid …); experiment: Western blot
Experimental: as §5, §6

[15] = biological target: T7, His-huTDP-43 domain IV (amino acid …); experiment: Western blot
Experimental: as §5, §6

[16] = biological target: T2, recombinant full-length His-tagged …; experiment: direct ELISA, coated antigen; remark: listed apart in the source
Experimental: as §1

[17] = biological target: T8, TDP-43 in human FTLD-U (and ALS) patient tissue sections (human, UniProt Q13148 1-414, limits assumed); experiment: immunohistochemistry, FTLD-U case hippocampus
T8 construct: Target of immunohistochemistry; the forms present are not defined; also called pathologic TDP-43; cytoplasmic, nuclear, neuritic TDP-43 in FTLD-U case tissue
T8 sequence (Q13148 whole entry): as the sequence (Q13148 whole entry) above

B1: NI-205.31C11 (antibody, human IgG1, V domains shown)
VH: QVQLVESGGGVVQPGRSLRLSCVASGFTFDNYGMHWVRQAPGKGLEWLAVISYGGDHQFYGDSVKDRFTISRDNSKNTAYLQMHSLRPDDTAVYYCATGVTPDFWGQGTLVTVSS
VL: DVVMTQSPLSLPVTLGQPASISCRSSQSLVHSDGNTYLNWFQQRPGQSPRRLIYKVSHRDSGVPDRFSGSGSGTDFTLKISRVEAEDVGVYYCLQGTHWPPFTFGQGTKLEIK
notes: Human-derived
[1]
  binding result: binds
[2]
  EC50: 11 nM
[3]
  EC50: 21.1 nM
[4]
  binding result: no binding
[5]
  binding result: no binding
[6]
  binding result: no binding (tested: 10 nM)
[7]
  binding result: no binding (tested: 10 nM)

B2: NI-205.1A9 (antibody, human IgG1, V domains shown)
VH: QVQLVQSGSELKKPGASVKVSCKASGYTFTSYAMNWVRQAPGQGLEWMGWINTNTGNPTYAQGFTGRFVFSLDTSVSTAYLQISSLKAEDTAVYYCARDRIDGSSWSSWFDPWGQGTLVTVSS
VL: QSVLTQPPSVSGAPGQRVTISCTGSSSNIGAGYDVHWYQQLPGTAPKLLIYGNSNRPSGVPDRFSGSKSGTSASLAITGLQAEDEADYYCQSFDSSLSSSVFGGGTKLTVL
notes: Human-derived
[1]
  binding result: binds
[2]
  EC50: 1 nM
[3]
  EC50: > 98 nM
[4]
  binding result: no binding
[5]
  binding result: no binding
[8]
  binding result: no binding
[9]
  binding result: no binding

B3: NI-205.98H6 (antibody, human IgG1, V domains shown)
VH: EVQLLESGGALVQPGGSLRLSCAASGLTFSRHAFSWVRQAPGKGLEWVAISSGSGGNTYYAASVKGRFTISRDESKNTLYLQMNSLRVEDTALYYCAKEVLEWSLLSRYMDVWGKGTTVTVSS
VL: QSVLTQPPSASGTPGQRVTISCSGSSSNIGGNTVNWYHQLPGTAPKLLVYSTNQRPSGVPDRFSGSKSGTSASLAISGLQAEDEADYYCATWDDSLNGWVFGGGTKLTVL
notes: Human-derived
[10]
  binding result: binds
[2]
  EC50: 2.6 nM
[3]
  EC50: 46 nM
[4]
  EC50: 20 nM
[5]
  binding result: no binding

B4: NI-205.38H2 (antibody, human IgG1, V domains shown)
VH: EVQLVESGGDLVQPGGSLRLSCTASGFNLGDYWMHWVRQVPGKGLVWVSRISSDGASVSYADFVEGRFTISRGNARNTLFLELNSLRLDDTAVYYCAMGVVWGQGTLVTVSS
VL: SYELTQPPSVSVSPGQTATISCSGDALPKRYAYWYKQKSGQVPVLIIYEDNKRPSGIPARFSGSSSGTMATLTITGAQVDDEADYYCYSSDNSDTYSVFGGGTKLTVL
notes: Human-derived
[2]
  EC50: 8.2 nM
[3]
  EC50: > 120 nM
[4]
  binding result: no binding
[5]
  binding result: no binding
[8]
  binding result: no binding
[9]
  binding result: no binding
[11]
  binding result: binds

B5: NI-205.68G5 (antibody, human IgG1, V domains shown)
VH: QVQLVESGGGVVQPGRSLRLSCAASGFTFSSYGMHWVRQAPGKGLEWVAIIYYDSSQRYYADSVKGRFTISRDNSKNALYLQMNSLRAEDTALYYCARDLPFHYHRSASFAPSDTWGQGTLVTVSS
VL: EIVLTQSPGTLSLSPGERATLSCRASQAVTNNYLAWYQQKPGQAPRLLVYAASSRATGIPDRFYGSGSGADFTLTISRLEPEDFAVYYCQQYGTSPITFGQGTRLEIK
notes: Human-derived
[12]
  binding result: no binding (tested: 10 nM)
[13]
  binding result: no binding (tested: 10 nM)
[14]
  binding result: no binding (tested: 10 nM)
[15]
  binding result: no binding (tested: 10 nM)
[16]
  EC50: > 100 nM
[2]
  EC50: > 100 nM

B6: NI-205.58E11 (antibody, human IgG1, V domains shown)
VH: EVQLLESGGGLVQPGGSLRLSCAASGFTFSSYSMSWVRQAPGKGLEWVATVGYGGTIYYADSVKGRFTISRDNSKNTLYLEMNSLRAEATAVYYCAKANYGGNRFGLDVWGQGTTVTVSS
VL: QSALTQPPSASGSPGQSVTISCTGTSSDVGGYNYVSWYQHQPGKAPKLMIYEVSKRPSGVPDRFSGSKSGNTASLTVSGLQAEDEADYYCSSYAGSNNLGVFGTGTEVTVL
notes: Human-derived
[2]
  binding result: no binding
[17]
  binding result: no binding (tested: 50 nM)
[3]
  binding result: no binding

B7: NI-205.20A1 (antibody, V domains shown)
VH: EVQLVESGGGLVQPGGSLRLSCAASGFTFSSYRMNWVRQAPGKGLEWVSYISTSSSTIYYADSVKGRFTISRDNAKNSLYLQMNSLRAEDTAVYYCARAFDYWGQGTLVTVSS
VL: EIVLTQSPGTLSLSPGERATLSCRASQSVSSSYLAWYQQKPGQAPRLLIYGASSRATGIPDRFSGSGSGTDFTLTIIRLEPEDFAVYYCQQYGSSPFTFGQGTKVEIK
notes: Human-derived
[12]
  binding result: no binding (tested: 10 nM)
[13]
  binding result: no binding (tested: 10 nM)
[14]
  binding result: no binding (tested: 10 nM)
[15]
  binding result: no binding (tested: 10 nM)
[2]
  binding result: no binding
[17]
  binding result: no binding (tested: 50 nM)
[3]
  binding result: no binding
